This passage reports EC50 results from patent EP4803149A2 (Lyvgen Biopharma Holdings Limited, dated 2026).

To fix the notation:
B1: Ly2278 (bispecific antibody)
chain 1: QVQLQQSGAELVRPGSSVKISCKASGYAFSSYWMNWVKQRPGQGLEWIGQIWPGDGDTNYNGKFKGKATLTADESSSTAYMQLSSLASEDSAVYFCARRETTTVGRYYYAMDYWGQGTTVTVSSASTKGPSVFPLAPSSKSTSGGTAALGCLVKDYFPEPVTVSWNSGALTSGVHTFPAVLQSSGLYSLSSVVTVPSSSLGTQTYICNVNHKPSNTKVDKKVEPKSCGGGGSGGGGSGGGGSGGGGSEVQLVESGGGLVQPGGSLRLSCAASGFTFSTYAMNWVRQAPGKGLEWVGRIRSKYNNYATYYADSVKGRFTISRDDSKNSLYLQMNSLKTEDTAVYYCVRHGNFGNSYVSWFAYWGQGTLVTVSSGGGGSDKTHTCPPCPAPEAAGPSVFLFPPKPKDTLMISRTPEVTCVVVDVSHEDPEVKFNWYVDGVEVHNAKTKPREEQYNSTYRVVSVLTVLHQDWLNGKEYKCKVSNKALPAPIEKTISKAKGQPREPQVYTLPPSREEMTKNQVSLWCLVKGFYPSDIAVEWESNGQPENNYKTTPPVLDSDGSFFLYSKLTVDKSRWQQGNVFSCSVMHEALHNHYTQKSLSLSPG
chain 2: QVQLQQSGAELVRPGSSVKISCKASGYAFSSYWMNWVKQRPGQGLEWIGQIWPGDGDTNYNGKFKGKATLTADESSSTAYMQLSSLASEDSAVYFCARRETTTVGRYYYAMDYWGQGTTVTVSSASTKGPSVFPLAPSSKSTSGGTAALGCLVKDYFPEPVTVSWNSGALTSGVHTFPAVLQSSGLYSLSSVVTVPSSSLGTQTYICNVNHKPSNTKVDKKVEPKSCGGGGSGGGGSGGGGSGGGGSQAVVTQEPSLTVSPGGTVTLTCRSSTGAVTTSNYANWVQQKPGQAPRGLIGGTNKRAPWTPARFSGSLLGGKAALTITGAQAEDEADYYCALWYSNLWVFGGGTKLTVLGGGGSDKTHTCPPCPAPEAAGPSVFLFPPKPKDTLMISRTPEVTCVVVDVSHEDPEVKFNWYVDGVEVHNAKTKPREEQYNSTYRVVSVLTVLHQDWLNGKEYKCKVSNKALPAPIEKTISKAKGQPREPQVYTLPPSREEMTKNQVSLSCAVKGFYPSDIAVEWESNGQPENNYKTTPPVLDSDGSFFLVSKLTVDKSRWQQGNVFSCSVMHEALHNRFTQKSLSLSPG
chain 3: not shown
notes: CD19/CD3; central CD3 Fv
B2: Ly1966 (multi-specific antibody)
chain 1: QVQLQQSGAELVRPGSSVKISCKASGYAFSSYWMNWVKQRPGQGLEWIGQIWPGDGDTNYNGKFKGKATLTADESSSTAYMQLSSLASEDSAVYFCARRETTTVGRYYYAMDYWGQGTTVTVSSASTKGPSVFPLAPSSKSTSGGTAALGCLVKDYFPEPVTVSWNSGALTSGVHTFPAVLQSSGLYSLSSVVTVPSSSLGTQTYICNVNHKPSNTKVDKKVEPKSCGGGGSGGGGSGGGGSGGGGSEVQLVESGGGLVQPGGSLRLSCAASGFTFSTYAMNWVRQAPGKGLEWVGRIRSKYNNYATYYADSVKGRFTISRDDSKNSLYLQMNSLKTEDTAVYYCVRHGNFGNSYVSWFAYWGQGTLVTVSSGGGGSDKTHTCPPCPAPEAAGPSVFLFPPKPKDTLMISRTPEVTCVVVDVSHEDPEVKFNWYVDGVEVHNAKTKPREEQYNSTYRVVSVLTVLHQDWLNGKEYKCKVSNKALPAPIEKTISKAKGQPREPQVYTLPPSREEMTKNQVSLWCLVKGFYPSDIAVEWESNGQPENNYKTTPPVLDSDGSFFLYSKLTVDKSRWQQGNVFSCSVMHEALHNHYTQKSLSLSPGGGGGSGGGGSGGGGSGGGGSQVQLVQSGAEVKKPGASVKVSCKASGYTFAGFEMHWVRQAPGQGLEWMGAIDPKTGGTDYNQKFKDRVTMTRDTSISTAYMELSRLRSDDTAVYYCARDLGYFDVWGQGTLVTVSS
chain 2: QVQLQQSGAELVRPGSSVKISCKASGYAFSSYWMNWVKQRPGQGLEWIGQIWPGDGDTNYNGKFKGKATLTADESSSTAYMQLSSLASEDSAVYFCARRETTTVGRYYYAMDYWGQGTTVTVSSASTKGPSVFPLAPSSKSTSGGTAALGCLVKDYFPEPVTVSWNSGALTSGVHTFPAVLQSSGLYSLSSVVTVPSSSLGTQTYICNVNHKPSNTKVDKKVEPKSCGGGGSGGGGSGGGGSGGGGSQAVVTQEPSLTVSPGGTVTLTCRSSTGAVTTSNYANWVQQKPGQAPRGLIGGTNKRAPWTPARFSGSLLGGKAALTITGAQAEDEADYYCALWYSNLWVFGGGTKLTVLGGGGSDKTHTCPPCPAPEAAGPSVFLFPPKPKDTLMISRTPEVTCVVVDVSHEDPEVKFNWYVDGVEVHNAKTKPREEQYNSTYRVVSVLTVLHQDWLNGKEYKCKVSNKALPAPIEKTISKAKGQPREPQVYTLPPSREEMTKNQVSLSCAVKGFYPSDIAVEWESNGQPENNYKTTPPVLDSDGSFFLVSKLTVDKSRWQQGNVFSCSVMHEALHNRFTQKSLSLSPGGGGGSGGGGSGGGGSGGGGSDIQMTQSPSSLSASVGDRVTITCRASQDIRSNLNWYQQKPGGAVKLLIYYTSRLHSGVPSRFSGSGSGTDYTLTISSLQPEDFATYFCQQSEKLPRTFGGGTKVEIR
chain 3: not shown
notes: CD19/CD3/CD137
B3: Ly1967 (multi-specific antibody)
chain 1: QVQLQQSGAELVRPGSSVKISCKASGYAFSSYWMNWVKQRPGQGLEWIGQIWPGDGDTNYNGKFKGKATLTADESSSTAYMQLSSLASEDSAVYFCARRETTTVGRYYYAMDYWGQGTTVTVSSASTKGPSVFPLAPSSKSTSGGTAALGCLVKDYFPEPVTVSWNSGALTSGVHTFPAVLQSSGLYSLSSVVTVPSSSLGTQTYICNVNHKPSNTKVDKKVEPKSCGGGGSGGGGSGGGGSGGGGSEVQLVESGGGLVQPGGSLRLSCAASGFTFSTYAMNWVRQAPGKGLEWVGRIRSKYNNYATYYADSVKGRFTISRDDSKNSLYLQMNSLKTEDTAVYYCVRHGNFGNSYVSWFAYWGQGTLVTVSSGGGGSDKTHTCPPCPAPEAAGPSVFLFPPKPKDTLMISRTPEVTCVVVDVSHEDPEVKFNWYVDGVEVHNAKTKPREEQYNSTYRVVSVLTVLHQDWLNGKEYKCKVSNKALPAPIEKTISKAKGQPREPQVYTLPPSREEMTKNQVSLWCLVKGFYPSDIAVEWESNGQPENNYKTTPPVLDSDGSFFLYSKLTVDKSRWQQGNVFSCSVMHEALHNHYTQKSLSLSPGGGGGSGGGGSGGGGSGGGGSQVQLVQSGAEVKKPGASVKVSCKASGYTFAGFEMHWVRQAPGQGLEWMGAIDPKTGGTDYNQKFKDRVTMTRDTSISTAYMELSRLRSDDTAVYYCARDLGYFDVWGQGTLVTVSS
chain 2: QVQLQQSGAELVRPGSSVKISCKASGYAFSSYWMNWVKQRPGQGLEWIGQIWPGDGDTNYNGKFKGKATLTADESSSTAYMQLSSLASEDSAVYFCARRETTTVGRYYYAMDYWGQGTTVTVSSASTKGPSVFPLAPSSKSTSGGTAALGCLVKDYFPEPVTVSWNSGALTSGVHTFPAVLQSSGLYSLSSVVTVPSSSLGTQTYICNVNHKPSNTKVDKKVEPKSCGGGGSGGGGSGGGGSGGGGSQAVVTQEPSLTVSPGGTVTLTCRSSTGAVTTSNYANWVQQKPGQAPRGLIGGTNKRAPWTPARFSGSLLGGKAALTITGAQAEDEADYYCALWYSNLWVFGGGTKLTVLGGGGSDKTHTCPPCPAPEAAGPSVFLFPPKPKDTLMISRTPEVTCVVVDVSHEDPEVKFNWYVDGVEVHNAKTKPREEQYNSTYRVVSVLTVLHQDWLNGKEYKCKVSNKALPAPIEKTISKAKGQPREPQVYTLPPSREEMTKNQVSLSCAVKGFYPSDIAVEWESNGQPENNYKTTPPVLDSDGSFFLVSKLTVDKSRWQQGNVFSCSVMHEALHNHYTQKSLSLSPGGGGGSGGGGSGGGGSGGGGSDIQMTQSPSSLSASVGDRVTITCRASQDIRSNLNWYQQKPGGAVKLLIYYTSRLHSGVPSRFSGSGSGTDYTLTISSLQPEDFATYFCQQSEKLPRTFGGGTKVEIR
chain 3: not shown
notes: CD19/CD3/CD137 multi-specific

The test has as its target CD3 (human). Nature of the test: ELISA or FCM (as in Example 2). On the technique in general: An ELISA detects its analyte on a solid surface through an enzyme-linked reagent.
As usually defined, the EC50 is the concentration needed to bring the measured effect to its halfway point. High values mean a need for much substance, low ones an effect from little substance. Take B1: the EC50 turned out to be 1.46 µg/mL.

With B2, the EC50 was found to be 0.348 µg/mL.

In the case of B3, the EC50 was 1.56 µg/mL.
